# Experimental data: PMC8790524, “Probing the binding of interleukin-23 to individual receptor components and the IL-23 heteromeric receptor complex in living cells using NanoBRET” (Cell Chemical Biology, 2022)
# Values joined by “and” are separate entries in the source; they are usually repeats but may differ in a detail not shown here. Equal entries are not always repeated.
# T1: NanoLuciferase-tagged full-length IL23R (UniProt Q5VWK5 24-629)
# T1 construct: IL-23 receptor (IL23R), full-length, synthesised without its endogenous signal peptide; Gly-Ser-Arg linker between NanoLuciferase and its N terminus; Open reading frame: N-terminal IL-6 secretion signal, NanoLuciferase, Gly-Ser-Arg, IL23R; in a pNLF vector; also called NL-IL23R; IL6SS-NL-IL23R; source: HEK293T, transiently transfected, on living cells; not shown: NanoLuciferase, N-terminal, kept
# T1 sequence (looked up): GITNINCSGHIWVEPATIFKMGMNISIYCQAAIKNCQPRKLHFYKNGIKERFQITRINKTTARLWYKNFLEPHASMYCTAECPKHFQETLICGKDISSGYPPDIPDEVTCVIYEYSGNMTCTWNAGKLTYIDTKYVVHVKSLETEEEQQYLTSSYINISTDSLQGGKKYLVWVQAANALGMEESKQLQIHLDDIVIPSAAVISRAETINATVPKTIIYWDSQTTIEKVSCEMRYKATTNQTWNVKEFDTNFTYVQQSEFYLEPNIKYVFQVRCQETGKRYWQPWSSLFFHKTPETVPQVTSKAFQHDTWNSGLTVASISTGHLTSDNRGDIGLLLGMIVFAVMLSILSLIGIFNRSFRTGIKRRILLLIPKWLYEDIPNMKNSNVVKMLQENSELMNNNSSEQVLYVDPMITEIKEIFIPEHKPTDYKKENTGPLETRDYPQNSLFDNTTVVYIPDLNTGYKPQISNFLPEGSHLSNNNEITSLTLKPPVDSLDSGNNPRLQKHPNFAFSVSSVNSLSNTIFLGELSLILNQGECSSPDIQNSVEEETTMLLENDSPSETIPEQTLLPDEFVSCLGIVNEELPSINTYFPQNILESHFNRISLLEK
# Assays:
# [1] = molecular target: NL-IL12Rβ1 co-expressed with HaloTag-IL23R (UniProt P42701 24-662; Q5VWK5 24-629, HaloTag NanoBRET 618 ligand bound to the HaloTag); test: cell-based or functional assay
# [2] = molecular target: wild-type IL23R heteromer (IL23R and IL12Rβ1) (UniProt Q5VWK5-1 24-629; P42701-1 24-662); test: cell-based or functional assay
# [3] = molecular target: T2, NL-IL23R co-expressed with untagged IL12Rβ1 (heteromeric IL-23 receptor complex) (UniProt Q5VWK5 24-629; P42701-1 24-662); test: cell-based or functional assay
# [4] = molecular target: T3, NL-IL23R co-expressed with HaloTag fused IL12Rβ1 (UniProt Q5VWK5 24-629; P42701 24-662); test: cell-based or functional assay
# [5] = molecular target: T4, NL-IL23R co-expressed with SNAP-tag fused IL12Rβ1 (UniProt Q5VWK5 24-629; P42701 24-662); test: cell-based or functional assay
# [6] = molecular target: T2, NL-IL23R co-expressed with untagged …; test: FRET or BRET; NanoBRET competition on living HEK293T cells co-transfected with NL-IL23R and IL12Rβ1: titration of unlabelled IL-23 against several concentrations of IL23-TMR; HBSS with 1 mg/ml BSA, 1 h; Ki by Cheng-Prusoff or by linear regression of IC50 against IL23-TMR concentration; details: one partner purified
# [7] = molecular target: T5, NL-IL12Rβ1 co-expressed with unlabeled IL23R (UniProt P42701 24-662; Q5VWK5-1 24-629); test: FRET or BRET; NanoBRET saturation binding of IL23-TMR to living HEK293T cells transfected with NL-IL12Rβ1 and IL23R at a 1:10 ratio (2.2 μg total DNA per well); HBSS with 1 mg/ml BSA, 1 h; non-specific binding with 100 nM unlabelled IL-23; details: one partner purified
# T5 construct: IL-12 receptor subunit β1 (IL12Rβ1), full-length, synthesised without its endogenous signal peptide; Gly-Ser-Arg linker between NanoLuciferase and its N terminus; IL-23 receptor (IL23R) from the Origene IL23R-MYCDDK expression plasmid; called unlabeled or untagged in the results; also called NL-IL12Rβ1:IL23R complex; NL-IL12Rβ1 + IL23R; source: HEK293T, transiently co-transfected (1:1 or 1:10 …)
# [8] = molecular target: T1, NanoLuciferase-tagged full-length IL23R; test: FRET or BRET; NanoBRET saturation binding of IL23-TMR to living HEK293T cells transiently expressing the NL-fused receptor (alone or 1:1 with the partner receptor plasmid); HBSS with 1 mg/ml BSA, 1 h, 37.5°C; non-specific binding with an excess of unlabelled IL-23 (50 nM to 1 μM); details: one partner purified
# [9] = molecular target: T6, NanoLuciferase-tagged full-length IL12Rβ1 (UniProt P42701 24-662); test: as above; details: one partner purified
# T6 construct: IL-12 receptor subunit β1 (IL12Rβ1), full-length, synthesised without its endogenous signal peptide; Gly-Ser-Arg linker between NanoLuciferase and its N terminus; Open reading frame: N-terminal IL-6 secretion signal, NanoLuciferase, Gly-Ser-Arg, IL12Rβ1; in a pNLF vector; also called NL-IL12Rβ1; IL6SS-NL-IL12Rβ1; source: HEK293T, transiently transfected, on living cells; not shown: …
# [10] = molecular target: T2, NL-IL23R co-expressed with untagged …; test: as above; details: one partner purified
# [11] = molecular target: T5, NL-IL12Rβ1 co-expressed with unlabeled …; test: as above; details: one partner purified
# [12] = molecular target: T3, NL-IL23R co-expressed with HaloTag …; test: as above; details: one partner purified
# [13] = molecular target: T4, NL-IL23R co-expressed with SNAP-tag …; test: as above; details: one partner purified
Binder,EC50 of IL-23 for the increase in intra-receptor BRET between NL-IL12Rβ1 and HaloTag-IL23R [1],"EC50 of IL-23 for STAT3 phosphorylation (Tyr705, AlphaLISA SureFire Ultra), HEK293T cells, 30 min [2]","potency (EC50) of IL-23 for STAT3 phosphorylation (Tyr705, AlphaLISA SureFire Ultra), HEK293T cells, 30 min [3]",EC50 of IL-23 for the decrease in intra-receptor BRET between NL-IL23R and HaloTag-IL12Rβ1 (HT618) [4],"potency (EC50) of IL-23 for STAT3 phosphorylation (Tyr705, AlphaLISA SureFire Ultra), HEK293T cells, 30 min [4]",EC50 of IL-23 for the increase in intra-receptor BRET between NL-IL23R and SNAP-IL12Rβ1 (AF488) [5],"potency (EC50) of IL-23 for STAT3 phosphorylation (Tyr705, AlphaLISA SureFire Ultra), HEK293T cells, 30 min [5]",Ki [6],Kd [7],Kd [8],Kd [9],Kd [10],KD of the high-affinity site (two-site fit) [11],KD of the low-affinity site (two-site fit) [11],Kd [11],Kd [12],Kd [13],Kd [6]
"Recombinant IL-23 protein (unlabeled) (ligand, several mass peaks differing by 162 Da, most likely N-linked glycosylation, IL23p19, the alpha subunit of IL-23, disulfide-linked to IL12p40; IL12p40, the beta subunit of IL-23, disulfide-linked to IL23p19; also called interleukin-23; unlabeled IL-23; source: HEK293-F, co-transduced with BacMam viruses (p19-His and p40), purified from the supernatant (Ni-Sepharose); gift of GlaxoSmithKline) chain 1: RAVPGGSSPAWTQCQQLSQKLCTLAWSAHPLVGHMDLREEGDEETTNDVPHIQCGDGCDPQGLRDNSQFCLQRIHQGLIFYEKLLGSDIFTGEPSLLPDSPVGQLHASLLGLSQLLQPEGHHWETQQIPSLSPSQPWQRLLLRFKILRSLQAFVAVAARVFAHGAATLSP chain 2: IWELKKDVYVVELDWYPDAPGEMVVLTCDTPEEDGITWTLDQSSEVLGSGKTLTIQVKEFGDAGQYTCHKGGEVLSHSLLLLHKKEDGIWSTDILKDQKEPKNKTFLRCEAKNYSGRFTCWWLTTISTDLTFSVKSSRGSSDPQGVTCGAATLSAERVRGDNKEYEYSVECQEDSACPAAEESLPIEVMVDAVHKLKYENYTSSFFIRDIIKPDPPKNLQLKPLKNSRQVEVSWEYPDTWSTPHSYFSLTFCVQVQGKSKREKKDRVFTDKTSATVICRKNASISVRAQDRYYSSSWSEWASVPCS",457 pM,269 pM,154 pM,43.6 pM,199 pM,42.9 pM,150 pM,0.0316 nM and 0.0272 nM,–,–,–,–,–,–,–,–,–,–
"TAMRA-conjugated IL-23 (ligand, TAMRA (5(6)-carboxytetramethylrhodamine, coupled as NHS ester); 64.9% of TAMRA labels were located on IL23p19; sites not stated | TAMRA (labelled to a lesser extent than IL23p19; sites not stated); several mass peaks differing by 162 Da, most likely N-linked glycosylation, IL23p19, the alpha subunit of IL-23, disulfide-linked to IL12p40; IL12p40, the beta subunit of IL-23, disulfide-linked to IL23p19; A mixture: by LC-MS 52.3% unlabeled, 29.5% single and 18.2% double labeled; by FCS/PCH 39.6% mono-labeled, 11.9% multi-labeled, 48.5% unlabeled; also called IL23-TMR; TAMRA-tagged IL-23; source: HEK293-F, co-transduced with BacMam viruses (p19-His and p40), purified …) chain 1: RAVPGGSSPAWTQCQQLSQKLCTLAWSAHPLVGHMDLREEGDEETTNDVPHIQCGDGCDPQGLRDNSQFCLQRIHQGLIFYEKLLGSDIFTGEPSLLPDSPVGQLHASLLGLSQLLQPEGHHWETQQIPSLSPSQPWQRLLLRFKILRSLQAFVAVAARVFAHGAATLSP chain 2: IWELKKDVYVVELDWYPDAPGEMVVLTCDTPEEDGITWTLDQSSEVLGSGKTLTIQVKEFGDAGQYTCHKGGEVLSHSLLLLHKKEDGIWSTDILKDQKEPKNKTFLRCEAKNYSGRFTCWWLTTISTDLTFSVKSSRGSSDPQGVTCGAATLSAERVRGDNKEYEYSVECQEDSACPAAEESLPIEVMVDAVHKLKYENYTSSFFIRDIIKPDPPKNLQLKPLKNSRQVEVSWEYPDTWSTPHSYFSLTFCVQVQGKSKREKKDRVFTDKTSATVICRKNASISVRAQDRYYSSSWSEWASVPCS",–,–,–,–,–,–,–,–,0.647 nM,222 nM,30.1 nM,0.027 nM,28 pM,72 nM,46.7 nM,0.179 ± 0.008 nM,0.454 ± 0.043 nM,0.0351 nM
